Values of other authors as cited in publication PMC11349558.

Target: histone H4 (UniProt P62805)

- Kd: 2 nM
Substance: fibrinogen D-domain (from UniProt P02671)
